{
  "source": "paper PMC6742648",
  "biological_target": "stabilized pre-fusion RSV F glycoprotein (DS-Cav1) (respiratory syncytial virus (strain not stated)) (UniProt P03420)",
  "test": "crystal structure; RB1 Fab with DS-Cav1, complex purified by SEC; crystals in 100 mM Tris pH 8.5, 12% PEG 8000, 200 mM ammonium sulfate; 3.4 A",
  "data": [
    {"substance": "stabilized pre-fusion RSV F glycoprotein (DS-Cav1) (from UniProt P03420 137-513) (natural protein)", "values": [
      {"measurement": "stoichiometry N", "value": 3}
    ]}
  ]
}
